Measured values from article PMC5241339 (2016).
Blank lines part the entries; values can stand above or below the binder they belong to.

What was measured:
[1] = molecular target: T1, CD36 (His-tagged recombinant human protein, Sino Biological, Life technologies, 70-80 kDa) (human, UniProt P16671 30-439); experiment: SPR; native 1; kd2 of two-state fit
[2] = molecular target: T1, CD36 (His-tagged recombinant human …); experiment: SPR; native 2; kd1 of two-state fit
[3] = molecular target: T1, CD36 (His-tagged recombinant human …); experiment: SPR; native 1; kd1 of two-state fit
[4] = molecular target: T1, CD36 (His-tagged recombinant human …); experiment: SPR; native 2; kd2 of two-state fit
[5] = molecular target: T1, CD36 (His-tagged recombinant human …); experiment: SPR; recombinant 2; kd2 of two-state fit
[6] = molecular target: T1, CD36 (His-tagged recombinant human …); experiment: SPR; recombinant 1; kd2 of two-state fit
[7] = molecular target: T1, CD36 (His-tagged recombinant human …); experiment: SPR; recombinant 1; kd1 of two-state fit
[8] = molecular target: T1, CD36 (His-tagged recombinant human …); experiment: SPR; recombinant 2; kd1 of two-state fit
[9] = molecular target: T1, CD36 (His-tagged recombinant human …); experiment: SPR; kd1 of two-state fit
[10] = molecular target: T1, CD36 (His-tagged recombinant human …); experiment: SPR; kd2 of two-state fit

T1 sequence (P16671 30-439): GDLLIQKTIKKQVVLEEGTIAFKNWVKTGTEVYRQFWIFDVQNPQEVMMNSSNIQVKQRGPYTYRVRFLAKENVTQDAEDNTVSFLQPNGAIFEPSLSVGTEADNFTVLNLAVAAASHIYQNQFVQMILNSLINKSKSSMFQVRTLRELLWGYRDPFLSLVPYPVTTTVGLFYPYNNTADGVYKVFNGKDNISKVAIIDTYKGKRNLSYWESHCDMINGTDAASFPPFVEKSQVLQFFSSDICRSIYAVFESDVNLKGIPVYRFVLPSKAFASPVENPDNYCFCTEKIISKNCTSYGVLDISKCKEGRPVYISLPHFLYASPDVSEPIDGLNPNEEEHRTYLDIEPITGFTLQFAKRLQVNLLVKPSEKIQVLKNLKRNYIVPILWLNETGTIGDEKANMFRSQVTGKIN

koff [1]: 0.00051 s⁻¹
koff [2]: 0.0092 s⁻¹
koff [3]: 0.0083 s⁻¹
koff [4]: 0.00056 s⁻¹
B1: commercially available native human S100A12 protein (nS100A12) (natural protein)
chain: MTKLEEHLEGIVNIFHQYSVRKGHFDTLSKGELKQLLTKELANTIKNIKDKAVIDEIFQGLDANQDEQVDFQEFISLVAIALKAAHYHTHKE

koff [5]: 0.00068 s⁻¹
koff [6]: 0.00037 s⁻¹
koff [7]: 0.0066 s⁻¹
koff [8]: 0.019 s⁻¹
B2: recombinant S100A12 (rS100A12) (natural protein)
chain: GPLGSMTKLEEHLEGIVNIFHQYSVRKGHFDTLSKGELKQLLTKELANTIKNIKDKAVIDEIFQGLDANQDEQVDFQEFISLVAIALKAAHYHTHKE

koff [9]: 0.014 s⁻¹
koff [10]: 0.001 s⁻¹
B3: fluorescein-labeled rS100A12 (natural protein)
chain: B2 chain
modifications: fluorescein (NHS-fluorescein, 15 times molar excess; labeled residues not stated)
